Experiment [1] deals with T1, ybbR-tagged full-length Gallus gallus FANCD2 labelled with Cy3 (Gallus gallus, UniProt Q68Y81 1-1439, modified Cy3 (LD555-CoA) conjugated to the carboxyl-terminal ybbR tag).
T1 construct: FANCD2, Gallus gallus, codon-optimized full-length construct; also called FANCD2-Cy3; FANCD2-ybbR; source: Sf9, purified (Strep-Tactin, heparin, Superdex 200), labelled with SFP synthase and gel filtered
In words: single-molecule two-colour confocal imaging on optically trapped DNA; 5 nM labelled D2–I loaded on λ DNA held between beads, imaged in the protein-free channel; 20 mM HEPES pH 7.5, 75 mM NaCl, 0.5 mg/ml BSA, 1 mM TCEP; 22 °C. As to conditions: both partners purified.

Experiment [2] concerns the target T2, Cy3 labelled monoubiquitinated Gallus gallus FANCD2_ybbR (Gallus gallus | , UniProt Q68Y81 1-1439; P0CG48 1-76, monoubiquitinated with His-tagged ubiquitin; Cy3 (LD555-CoA) conjugated to the ybbR tag | joined to a lysine of FANCD2).
T2 construct: FANCD2, Gallus gallus, full-length ybbR-tagged construct as in m3; ubiquitin, His-tagged, bought from Enzo Life Sciences; also called ubFANCD2; ubFANCD2_ybbR; copies: 1 + 1
Kind of experiment: single-molecule two-colour confocal imaging on optically trapped DNA; ubD2–I formed by incubating purified ubFANCD2 and FANCI with relaxed, optically trapped λ DNA (less than 1 pN), then moved to the protein-free channel; kymographs at 15 pN. As to conditions: both partners purified.

Data on 1 molecule can be found in publication PMC11358013, “FANCD2–FANCI surveys DNA and recognizes double- to single-stranded junctions” (Nature, 2024).

B1: ybbR-tagged full-length Gallus gallus FANCI labelled with Cy5 (natural protein, UniProt B0I564 1-1338, looked up)
chain: MAQRILQLAAEGSPERLQEALQGLTEGELGDMVTRQALRGRETAALLKGIFKGSPCSQQSGVLRRLQVYKHCVSLVESGDLHVGKVSEIIGLLMLEARQLPGHALAELATLFVEVIKRGSLSNGKSLELFSTVLTALSNSKESLAYGKGELNGEEFKKQLINTLCSSKWDPQCVIHLANMFRDIPLSGEELQFVVEKVLRMFSKLDLQEIPPLVYQLLLLSAKGSKKTVLEGIISFFNQLDKRQKEEQRVPQSADLEVATVPLDQLRHVEGTVILHIVSAINLDQDIGEELIKHLKTEQQKDPGKALCPFSVSLLLSTAVKHRLQEQIFDFLKTSITRSCKDLQILQASKFLQDLCPQQYDVTAVILEVVKNSAFGWDHVTQGLVDLGFSLMESYEPKKSFGGKAAETNLGLSKMPAQQACKLGASILLETFKVHEPIRSDILEQVLNRVLTKAASPVSHFIDLLSNIVVSAPLVLQNSSSRVTETFDNLSFLPIDTVQGLLRAVQPLLKVSMSVRDSLILVLQKAIFSRQLDARKAAVAGFLLLLRNFKILGSLTSSQCSQAIGATQVQADVHACYNSAANEAFCLEILGSLRRCLSQQADVRLMLYEGFYDVLRRNSQLASSIMETLLSQIKQYYLPQQDLLPPLKLEGCIMAQGDQIFLQEPLAHLLCCIQHCLAWYKSTVHLCKGAEDEEEEEDVGFEQNFEEMLESVTRRMIKSELEDFELDKSADFSPSSGVGVKNNIYAIQVMGICEVLIEYNFKIGNFSKNKFEDVLGLFTCYNKLSEILKEKAGKNKSTLGNRIARSFLSMGFVSTLLTALFRDNAQSHEESLAVLRSSTEFMRYAVSVALQKVQQLEEMGQTDGPDGQNPEKMFQNLCKITRVLLWRYTSIPTAVEESGKKKGKSISLLCLEGLLRIFNTMQQLYAARIPQFLQALDITDGDAEEADINVTEKAAFQIRQFQRSLVNQLSSAEDDFNSKETQLLITILSTLSKLLDPGSQQFLQFLTWTVKICKENALEDLSCCKGLLTLLFSLHVLYKSPVSLLRELAQDIHACLGDIDQDVEIESRSHFAIVNVKTAAPTVCLLVLGQADKVLEEVDWLIKRLTILGSDTSEDSTQASNQTQALEKGVILQLGTLLTVFHELVQTALPAGSCVDSLLRSLSKTYAILTSLIKHYIQACRSTSNTVPGRLEKLVKLSGSHLTPQCYSFITYVQNIHSESLSFAEEKKKKKKEDETAVVSTVMAKVLRDTKPIPNLIFAIEQYEKFLIHLSKKSKVNLMQYMKLSTSRDFRINASMLDSVLQEQNTEDAENEPDNNQSGTAEQPDENQEPQKKRRRKK
modifications: modified Cy5 (LD655-CoA) conjugated to the carboxyl-terminal ybbR tag
notes: FANCI, Gallus gallus, full-length; C-terminal extension with a 3C protease site and 6xHis-tag before the ybbR tag; also called FANCI-Cy5; FANCI-ybbR; source: Sf9, purified (HisTrap, heparin, Superdex 200), labelled with SFP synthase and gel filtered
B1: the binding result in experiment [1] and in experiment [2] was “binds” each time.
